According to US20210009984A1:

Biological target: mannose-6-phosphate receptors (M6PR) (human)
Test: cell-based or functional assay

| Substance | Km value, Michaelis-Menten constant that represents a half of the maximum absorption rate (intracellular absorption in CCD986SK cells, read by enzyme activity after 24 hours) |
| --- | --- |
| agalsidase-beta (from UniProt P06280 32-429) (enzyme) | 0.0109 µM |
| alpha-galactosidase-Fc fusion protein | 0.0116 µM |
